The values below come from article PMC10777313.

One assay concerns the target mCD32b (mouse) (UniProt P08101). The assay can be described thus: BLI; Fortebio Octet, 30°C; FcγRs loaded on NTA sensors at 5 μg/mL (2.5 nm); antibodies in solution, six 2-fold dilutions; 1× PBS, 0.1% BSA, 0.02% Tween 20; steady-state equilibrium analysis. In general terms: Biolayer interferometry detects binding as a change in optical thickness at a sensor tip.
The target in another assay is mCD16-2 (mouse). The description is as above.
Assay [1] concerns the target hCD32b (FcγR IIb) (human) (UniProt P31994). The assay can be described thus: BLI.
UniProt P31994, sequence (P31994 43-310): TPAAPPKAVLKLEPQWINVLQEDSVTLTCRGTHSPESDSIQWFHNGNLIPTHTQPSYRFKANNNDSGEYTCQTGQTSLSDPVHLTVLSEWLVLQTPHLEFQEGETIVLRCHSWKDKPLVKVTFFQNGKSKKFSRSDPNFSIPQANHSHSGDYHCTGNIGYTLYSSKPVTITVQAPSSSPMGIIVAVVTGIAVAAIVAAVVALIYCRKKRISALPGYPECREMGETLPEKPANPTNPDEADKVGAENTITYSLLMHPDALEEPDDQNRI
Assay [2] deals with hCD16b (FcγR IIIb) (human) (UniProt O75015). In words: BLI.
UniProt O75015, sequence (O75015 17-200): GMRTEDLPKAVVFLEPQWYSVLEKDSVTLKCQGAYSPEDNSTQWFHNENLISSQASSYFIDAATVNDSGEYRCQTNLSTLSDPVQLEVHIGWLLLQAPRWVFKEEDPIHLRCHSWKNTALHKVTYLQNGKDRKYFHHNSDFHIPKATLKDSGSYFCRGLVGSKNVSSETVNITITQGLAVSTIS
For assay [3], the target named is hCD16a (FcγR IIIa) (human) (UniProt P08637). The assay can be described thus: BLI.
UniProt P08637, sequence (P08637 17-208): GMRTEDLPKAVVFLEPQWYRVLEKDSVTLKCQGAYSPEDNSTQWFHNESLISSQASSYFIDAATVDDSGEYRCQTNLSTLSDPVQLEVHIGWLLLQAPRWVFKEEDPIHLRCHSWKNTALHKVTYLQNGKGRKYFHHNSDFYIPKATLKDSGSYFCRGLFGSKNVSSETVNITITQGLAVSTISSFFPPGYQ

UniProt P08101, sequence (P08101 30-330): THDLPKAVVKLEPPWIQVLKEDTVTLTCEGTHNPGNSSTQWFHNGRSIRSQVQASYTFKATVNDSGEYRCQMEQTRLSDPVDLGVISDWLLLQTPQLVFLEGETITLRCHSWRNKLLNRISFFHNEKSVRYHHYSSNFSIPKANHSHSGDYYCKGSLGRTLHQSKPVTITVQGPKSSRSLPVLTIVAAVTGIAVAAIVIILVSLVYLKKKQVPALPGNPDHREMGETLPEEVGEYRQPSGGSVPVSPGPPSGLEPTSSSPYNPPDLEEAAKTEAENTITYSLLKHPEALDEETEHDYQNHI

One may read the Kd as the free concentration of one partner at which half of the binding sites on the other are occupied at equilibrium, for simple one-to-one binding. A higher Kd goes with weaker binding. For Wild-type huE6F6 (huE6F6-wt) (antibody), the figures for the Kd with mCD32b (mouse) and in the assay with mCD16-2 (mouse) were 2800 nM and 1100 nM, respectively.
Regarding “Wild-type huE6F6 (huE6F6-wt) (from UniProt P01857)”, the dissociation constant Kd in assay [1] came to 1100 nM; in assay [2] it was 2580 nM; in assay [3], 805 nM.
